According to patent US20220002384A1 (published 2022):
Values belong to the binder of their own block, whether it stands above or below them.

Target: T1, AXL (R&D Systems cat#154-AL) (UniProt P30530 26-440)
T1 chain: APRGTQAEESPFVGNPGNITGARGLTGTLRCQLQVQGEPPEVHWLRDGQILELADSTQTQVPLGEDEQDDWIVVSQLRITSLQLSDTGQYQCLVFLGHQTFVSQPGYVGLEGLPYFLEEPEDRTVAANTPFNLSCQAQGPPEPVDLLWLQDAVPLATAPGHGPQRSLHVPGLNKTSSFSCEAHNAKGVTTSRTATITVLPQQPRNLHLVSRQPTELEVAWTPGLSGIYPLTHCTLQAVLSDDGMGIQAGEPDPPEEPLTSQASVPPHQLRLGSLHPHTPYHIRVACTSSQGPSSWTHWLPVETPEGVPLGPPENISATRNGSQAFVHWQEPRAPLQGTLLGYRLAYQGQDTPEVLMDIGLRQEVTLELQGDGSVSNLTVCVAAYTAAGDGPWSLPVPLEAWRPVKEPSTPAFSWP
Assay: BLI

Kd: 4 nM
B1: AXL #44 (designed binder)
chain: NVSPPRRARVTDATETTITIRWEGRGVIGFQVDAVPANGQTPIQRTIKPDVRSYTITGLQPGTDYKIYLYTLPNIGTGHFSSSPVVIDAST

Kd: 12 nM
B2: AXL #56 (designed binder)
chain: NVSPPRRARVTDATETTITISWRVSPSTVVGLQVDAVPANGQTPIQRTIKPDVRSYTITGLQPGTDYKIYLYTLNVIGGSAHASSPVVIDAST
